Measured values as given in paper doi:10.1101/2025.03.30.646141v1.

What was measured:
steady-state kinetics [1] = substrate: Nc1nc2c(ncn2[C@@H]2O[C@H](COP(=O)(O)OP(=O)(O)OP(=O)(O)O)[C@@H](O)[C@H]2O)c(=O)[nH]1; assay: steady-state kinetics; format: biochemical, Pseudomonas aeruginosa; conditions: 100 µM kanamycin A, Tris buffer pH 7.5, Mg2+, 25 °C
steady-state kinetics [2] = substrate: Nc1ncnc2c1ncn2[C@@H]1O[C@H](COP(=O)(O)OP(=O)(O)OP(=O)(O)O)[C@@H](O)[C@H]1O; assay: steady-state kinetics; format: biochemical, Pseudomonas aeruginosa; conditions: 100 µM kanamycin A, Tris buffer pH 7.5, Mg2+, 25 °C
purified protein [3] = substrate: NC[C@@H]1O[C@H](O[C@H]2[C@@H](O)[C@H](O[C@@H]3[C@@H](O)[C@H](N)C[C@H](N)[C@H]3O[C@H]3O[C@H](CO)[C@@H](O)[C@H](O)[C@H]3N)O[C@@H]2CO)[C@H](N)[C@@H](O)[C@@H]1O; assay: purified protein; conditions: 100 µM MgATP, Tris buffer pH 7.5, 25 °C
purified protein [4] = substrate: NC[C@@H]1O[C@H](O[C@H]2[C@@H](O)[C@H](O[C@@H]3[C@@H](O)[C@H](N)C[C@H](N)[C@H]3O[C@H]3O[C@H](CN)[C@@H](O)[C@H](O)[C@H]3N)O[C@@H]2CO)[C@H](N)[C@@H](O)[C@@H]1O; assay: purified protein; conditions: 100 µM MgATP, Tris buffer pH 7.5, 25 °C
purified protein [5] = substrate: NC[C@H]1O[C@H](O[C@H]2[C@H](O[C@@H]3O[C@H](CO)[C@@H](O)[C@H]3O)[C@@H](O)[C@H](N)C[C@@H]2N)[C@H](N)[C@@H](O)[C@@H]1O; assay: purified protein; conditions: 100 µM MgATP, Tris buffer pH 7.5, 25 °C
purified protein [6] = substrate: NC[C@H]1O[C@H](O[C@H]2[C@H](O)[C@@H](O[C@H]3O[C@H](CO)[C@@H](O)[C@H](N)[C@H]3O)[C@H](N)C[C@@H]2N)[C@H](N)[C@@H](O)[C@@H]1O; assay: purified protein; conditions: 100 µM MgATP, Tris buffer pH 7.5, 25 °C
purified protein [7] = substrate: NC[C@H]1O[C@H](O[C@H]2[C@H](O)[C@@H](O[C@H]3O[C@H](CO)[C@@H](O)[C@H](N)[C@H]3O)[C@H](N)C[C@@H]2N)[C@H](O)[C@@H](O)[C@@H]1O; assay: purified protein; conditions: 100 µM MgATP, Tris buffer pH 7.5, 25 °C

B1: APH(3’)-IIb WT (Pseudomonas aeruginosa PAO1) (protein)
chain: MHDAATSMPPQAPSTWADYLAGYRWRGQGEGCSAATVHRLEAARRPTLFVKQEVLSAHAELPAEIARLRWLHGAGIDCPQVLNETQSDGRQWLLMSAVPGDTLSALAQRGELEPERLVRLVAAALRRLHDLDPAACPFDHRLERRLDTVRQRVEAGLVDEADFDDDHRGRSATELYRLLLDRRPAVEDLVVAHGDACLPNLLAEGRRFSGFIDCGRLGVADRHQDLALAARDIEAELGAAWAEAFLVEYGGDIDGERLAYFRLLDEFF
B1 was tested, and the Km (steady-state kinetics [1]) was 320 µM, the kcat (steady-state kinetics [1]) was 0.41 s⁻¹ and the Km (steady-state kinetics [2]) was 3 µM. For the same protein, the kcat (steady-state kinetics [2]) was 0.38 s⁻¹, the Km (purified protein [3]) was 0.50 ± 0.10 µM and the kcat (purified protein [3]) was 2.64 ± 0.14 s⁻¹. For the same protein, the Km (purified protein [4]) was 0.27 ± 0.10 µM, the kcat (purified protein [4]) was 1.98 ± 0.17 s⁻¹ and the Km (purified protein [5]) was 1.17 ± 0.26 µM. For the same protein, the Km (purified protein [6]) was 0.19 ± 0.07 µM, the kcat (purified protein [6]) was 2.13 ± 0.20 s⁻¹ and the Km (purified protein [7]) was 0.21 ± 0.10 µM. For the same protein, the kcat (purified protein [7]) was 0.58 ± 0.04 s⁻¹.
